Several values for one entry are separate records, joined by “and”; a condition that tells them apart may be missing. Equal entries are not always repeated. Values belong to the binder of their own block, whether it stands above or below them.
How the values were obtained:
[1] = target: murine FGFR-2 (bek) expressed on CHO cells (murine) (UniProt P21803); assay: radioligand binding
[2] = target: murine FGFR-1 (flg) expressed on CHO cells (murine) (UniProt P16092); assay: radioligand binding

Kd [1]: 60 pM
fold affinity over K-FGF (competition) [1]: 2 fold
fold affinity over bFGF and K-FGF (competition against 125I-bFGF) [1]: 2 fold and 3 fold
Kd [2]: 90 pM
B1: recombinant K140 (NH2-terminally truncated K-FGF, residues 67-206) (ligand)
chain: MAAVQSGAGDYLLGIKRLRRLYCNVGIGFHLQALPDGRIGGAHADTRDSLLELSPVERGVVSIFGVASRFFVAMSSKGKLYGSPFFTDECTFKEILLPNNYNAYESYKYPGMFIALSKNGKTKKGNRVSPTMKVTHFLPRL
modifications: 125I-labeled Bolton-Hunter reagent (where used as the labelled ligand)

Kd [1]: 140 pM
Kd [2]: 280 pM
fold more unlabeled competitor required than of K140 [2]: 5 fold
B2: recombinant wild-type K-FGF (human K-FGF/HST, FGF-4) (ligand)
chain: APTAPNGTLEAELERRWESLVALSLARLPVAAQPKEAAVQSGAGDYLLGIKRLRRLYCNVGIGFHLQALPDGRIGGAHADTRDSLLELSPVERGVVSIFGVASRFFVAMSSKGKLYGSPFFTDECTFKEILLPNNYNAYESYKYPGMFIALSKNGKTKKGNRVSPTMKVTHFLPRL
modifications: 125I-labeled Bolton-Hunter reagent (where used as the labelled ligand)
